According to patent US20230071765A1, “COMPOSITIONS HAVING THIOREDOXIN ACTIVITY AND RELATED METHODS” (ORPRO THERAPEUTICS, INC., priority 2020, published 2023):

Tests used:
[1] = test system: CF patient sputum on wild type rat trachea; assay: CF sputum transport ex vivo on excised rat trachea (μOCT); set-up: species or system human sputum; settings: sputum treated 2 hrs; ORP100S 3 mM, DTT 1.6 mM, DNase 10 or 25 μg/ml; PBS 0.97±0.17
Method: To determine the effect of ORP100S on CF sputum transportability, sputum specimens spontaneously expectorated from 4 CF patients hospitalized for pulmonary exacerbation were collected and stored at 4° C. before being divided into 200 μL aliquots and treated with ORP100S (3 mM), PBS, DTT (1.6 mM), or DNase (10 or 25 μg/ml) on the day of or day following collection. Upon treatment, sputum aliquots were placed in a 37° C. water bath for 2 hrs and then applied (3 μl per sample) for μOCT imaging to the distal end of trachea excised from adult non-CF rats. Trachea were washed 2× with 500 μl of PBS before sputum addition. Sample conditions were applied in triplicate in random order at distinct anatomic locations—2 washes using 500 μl of PBS were performed between each sample addition—and at least 3 images were collected from each region of interest. Confirmation of trachea viability was obtained by imaging with PBS upon completion of the experiment.
One-micron resolution spectral domain μOCT was used to obtain measurements of mucociliary transport (MCT) rate and ciliary beat frequency (CBF) in HBE monolayers and of MCT rate of sputum ex vivo. This first-in-kind, high-speed (40 frames per second, 512 lines per frame) microscopic reflectance imaging modality enables simultaneous anatomic imaging in cell cultures and intact tissues that readily distinguishes the properties of CF compared to normal epithelia (Liu L, Chu K K, Houser G H, Diephuis B J, Li Y, Wilsterman E J, Shastry S, Dierksen G, Birket S E, Mazur M, et al., 2013, Method for quantitative study of airway functional microanatomy using micro-optical coherence tomography, PLoS One 8(1):e54473; Tuggle K L, Birket S E, Cui X, Hong J, Warren J, Reid L, Chambers A, Ji D, Gamber K, Chu K K, et al., 2014, Characterization of defects in ion transport and tissue development in Cystic Fibrosis Transmembrane Conductance Regulator (CFTR)-knockout rats. PLoS One 9(3):e91253). In addition to MCT rate and CBF, μOCT also has the capability to assess physical characteristics of the airway surface liquid. Images were captured, and MCT rate and CBF calculated, as described in the preceding references.
The effect of ORP100S on mucus clearance using intact rat trachea, which include the complexities of the airway surface such as gland expression of a fully differentiated mucosal surface, was further evaluated. […] MCT was measured by projecting a cross-sectional line through the mucus through time, with the slope of the particle trajectories indicating velocity. […]

[2] = test system: pediatric patients; settings: human, in vivo; cited from earlier work

B1: DNase: recombinant human DNase I (protein, UniProt P24855 23-282, looked up)
Deoxyribonuclease-1: LKIAAFNIQTFGETKMSNATLVSYIVQILSRYDIALVQEVRDSHLTAVGKLLDNLNQDAPDTYHYVVSEPLGRNSYKERYLFVYRPDQVSAVDSYYYDDGCEPCGNDTFNREPAIVRFFSRFTEVREFAIVPLHAAPGDAVAEIDALYDVYLDVQEKWGLEDVMLMGDFNAGCSYVRPSQWSSIRLWTSPTFQWLIPDSADTTATPTHCAYDRIVVAGMLLRGAVVPDSALPFNFQAAYGLSDQLAQAISDHYPVEVMLK
MCT rate of treated sputum [1]: 2.30±0.28 mm/min | pediatric patients with clinical deterioration in lung function [2]: 6-30%
